The values below come from patent US20240197877A1, “BINDING PROTEINS RECOGNIZING HA-2 ANTIGEN AND USES […]” (published 2024).

Assay [1] concerns the target MALT1 peptide (…) on peptide-pulsed T2 cells, HLA-A*02:01 (human). Briefly: cell-based or functional assay.
Assay [2] deals with MYO3A/MYO3B peptide (…) on peptide-pulsed T2 cells, HLA-A*02:01 (human). Kind of assay: cell-based or functional assay.

B1: HA2-MJ14-DP317 MGTM Sequence (also known as “TCR-101” and “MJ14-DP317”) (TCR, V domains shown)
V domain 1: QTVTQSQPEMSVQEAETVTLSCTYDTSESDYYLFWYKQPPSRQMILVIRQEAYKQQNATENRFSVNFQKAAKSFSLKISDSQLGDAAMYFCAYRSERYSTLTFGKGTMLLVSP
V domain 2: SQTIHQWPATLVQPVGSPLSLECTVEGTSNPNLYWYRQAAGRGLQLLFYSVGIGQISSEVPQNLSASRPQDRQFILSSKKLLLSDSGFYLCAWSVPYLAGGKRPDTQYFGPGTRLTVLE
Regarding B1, the “EC50 of cytotoxicity (AUC of growth of peptide-pulsed T2 cells over 72 h against peptide dose)” value in assay [1] and in assay [2] was 100 fold lower affinity than the target HA-2 peptide each time.
